Assay [1] concerns the target T1, TAMRA-labeled effector peptide cs230B (5(6)-TAMRA label coupled on resin after synthesis).
T1 construct: also called TAMRA-cs230B
T1 peptide: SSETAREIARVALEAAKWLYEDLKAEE
Kind of assay: fluorescence polarization titration; TAMRA-peptide constant, hinge varied. From the text:
(§1) We used our hinge design approach to generate hinge-peptide pairs that span a wide structural space (FIGS. 1D, 2A, 6, 7). We experimentally tested multiple rounds of designs, using both DHRs (21) and helical junctions (22) as input scaffolds, and improving individual steps of the design pipeline between iterations. Designs for which hinge and GFP-fused peptide were soluble and interacted as judged by size exclusion chromatography (SEC, FIGS. 7-8) were selected for further characterization by fluorescence polarization (FP). […] To circumvent the bottleneck of finding soluble peptide sequences, we also sought to design hinges that bind to a given target peptide. Starting from design cs201, we used a modified version of our design pipeline to redesign the hinge to bind peptides cs074B or cs221B, respectively, which have similar hydrophobic fingerprints as the original target peptide cs201B.
(§2) All FP measurements were performed at 25° C. in 96-well plates (Corning 3686) using a Synergy Neo2™ plate reader and a 530/590 nm filter cube. The buffer for all FP measurements was 20 mM Tris-HCl, 100 mM NaCl, 0.05% v/v TWEEN20 at pH 8. Titrations were carried out in 96-well format, with 4 replicates per plate and 24 data points per titration (23 steps of two-fold serial dilution of hinges in the presence of TAMRA-labeled peptide at a constant concentration between 0.1 nM and 1 nM) with a final sample volume of 80 μl per well. Titration plates were incubated overnight at room temperature before measuring to ensure complete equilibration. The polarization signal S (as calculated by the Neo2™ software) was fitted to the equation

A further assay concerns the target T2, effector protein 3hb24.
T2 chain: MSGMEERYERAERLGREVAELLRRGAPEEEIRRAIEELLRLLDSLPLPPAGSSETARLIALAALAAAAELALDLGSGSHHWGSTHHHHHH
Put plainly: SEC binding experiment.

Assay [2] addresses T3, TAMRA-labeled effector peptide cs074B (5(6)-TAMRA label coupled on resin after synthesis).
T3 construct: Chemically synthesized; also called TAMRA-cs074B
T3 peptide: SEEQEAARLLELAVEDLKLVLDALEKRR
Kind of assay: fluorescence polarization kinetics; slope of kapp against hinge concentration. Here is the method:
as §2
For FP kinetics experiments a 2× peptide solution and 8 different 2× hinge solutions at different concentrations were prepared separately. 40 μl of each hinge solution were mixed with 40 μl peptide solution using a multichannel pipet and the measurement was started immediately after mixing. Polarization signals S at each concentration were fitted individually to the equation

For assay [3], the target named is T3, TAMRA-labeled effector peptide cs074B. Put plainly: fluorescence polarization titration; TAMRA-peptide constant, hinge varied.
Source text: as §1, §2
(In general: Fluorescence polarisation rises when a labelled molecule tumbles more slowly, as on binding a larger partner.)

Another assay concerns the target T4, effector protein 3hb12.
T4 construct: Three-helix bundle built around peptide cs074B
T4 chain: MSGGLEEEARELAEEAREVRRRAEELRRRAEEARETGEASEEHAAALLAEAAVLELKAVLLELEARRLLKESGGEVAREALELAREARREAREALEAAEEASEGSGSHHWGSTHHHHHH
Put plainly: SEC binding experiment.

For a further assay, the target named is T5, effector protein 3hb11.
T5 construct: Three-helix bundle built around peptide cs074B
T5 chain: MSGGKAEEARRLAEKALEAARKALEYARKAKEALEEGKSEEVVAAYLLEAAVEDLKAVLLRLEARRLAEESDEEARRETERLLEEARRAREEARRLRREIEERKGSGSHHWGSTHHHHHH
Put plainly: SEC binding experiment.

A further assay deals with T6, effector protein 3hb03.
T6 construct: Three-helix bundle built around peptide cs074B
T6 chain: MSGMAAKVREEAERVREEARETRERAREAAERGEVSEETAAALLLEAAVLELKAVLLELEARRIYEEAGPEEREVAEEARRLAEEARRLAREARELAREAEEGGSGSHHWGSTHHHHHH
Put plainly: SEC binding experiment.

Another assay deals with T7, effector protein 3hb08.
T7 construct: Three-helix bundle built around peptide cs074B
T7 chain: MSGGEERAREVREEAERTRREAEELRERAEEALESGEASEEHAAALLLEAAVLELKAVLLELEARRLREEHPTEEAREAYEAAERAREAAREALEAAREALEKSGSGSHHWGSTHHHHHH
Kind of assay: SEC binding experiment.

The next assay has as its target T8, effector protein 3hb04.
T8 construct: Three-helix bundle built around peptide cs074B
T8 chain: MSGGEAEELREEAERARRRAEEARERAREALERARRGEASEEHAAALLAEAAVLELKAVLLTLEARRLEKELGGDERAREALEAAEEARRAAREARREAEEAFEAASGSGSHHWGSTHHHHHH
Put plainly: SEC binding experiment.

For assay [4], the target named is T3, TAMRA-labeled effector peptide cs074B. Put plainly: fluorescence polarization titration; TAMRA-peptide constant, unlabeled hinge varied. The method, then: as §2
Assay [5] deals with T9, TAMRA-labeled effector peptide cs221B (5(6)-TAMRA label coupled on resin after synthesis).
T9 construct: also called TAMRA-cs221B
T9 peptide: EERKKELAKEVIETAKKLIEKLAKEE
Put plainly: FP titration, 1 nM TAMRA-labeled peptide, reducing conditions. An excerpt: To test the effect of the conformational pre-equilibrium on effector binding, we introduced disulfide “staples” that lock the hinge in one conformation. Using FP we analyzed peptide binding to stapled versions of hinge cs221 (FIG. 5A,B). […] Using the pre-equilibrium model described above, the observed association rates provide an estimate of the fraction of hinge that is in state Y in absence of the peptide: a 200-fold higher observed on rate for the locked Y variant indicates a 200-fold higher fraction of hinge in state Y compared to the original hinge. Assuming that the locked Y variant is 100% in state Y and assuming that the microscopic rate constant k₂ is identical for the locked Y hinge and state Y of the original hinge, this would indicate that the original hinge is 99.5% in state X and 0.5% in state Y at equilibrium.
All FP measurements were performed at 25° C. in 96-well plates (Corning 3686) using a Synergy Neo2™ plate reader and a 530/590 nm filter cube. The buffer for all FP measurements was 20 mM Tris-HCl, 100 mM NaCl, 0.05% v/v TWEEN20 at pH 8. […] The polarization signal S (as calculated by the Neo2™ software) was fitted to the equation

In assay [6] the target is T10, TAMRA-labeled effector peptide cs269B (5(6)-TAMRA label coupled on resin after synthesis).
T10 construct: also called TAMRA-cs269B
T10 peptide: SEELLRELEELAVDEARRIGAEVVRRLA
Put plainly: fluorescence polarization titration; TAMRA-peptide constant, hinge varied.
Source text: as §1, §2

Assay [7] has as its target T10, TAMRA-labeled effector peptide cs269B. Put plainly: fluorescence polarization kinetics; 5 nM TAMRA-peptide, slope of kapp against hinge concentration.
Another assay concerns the target T11, effector protein 3hb32.
T11 chain: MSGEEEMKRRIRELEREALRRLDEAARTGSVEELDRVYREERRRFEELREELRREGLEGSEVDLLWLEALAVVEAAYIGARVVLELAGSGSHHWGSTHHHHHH
Put plainly: SEC binding experiment.

Broadly, the Kd is the constant that tells how readily two partners part at equilibrium. One may read the kon as a measure of how fast the partners come together.

Bounds are passed on as bounds.

B1: hinge cs230 (designed binder)
chain: MSGTKEEKERIERIEKEVRSPDPENILEAVRKALELFRENPSEEAKELLKRAIEAALRSEDERAILEALRAALEAYRQGAGDREGLLEAIRVAIRRAAESEDERAILEAVRAARILLEAERTEEAKELLRVAIERAKKSPDPEAQREAKRAEEELRKEDGSGSHHWGSTHHHHHH
Consider B1, for which the dissociation constant (Kd) in assay [1] worked out at 2800 nM. The binding result with effector protein 3hb24 was “binds”.

B2: hinge cs074 (designed binder)
chain: MSGDEEVQEAVERAEELREEAEELIKKARKTGDPELLRKALEALKEAVRAVKEAIKRNPDNEEAVKTAVRLARELLKVAEELKERAEKTGDPRLLLLAAEAIAWAIEAVFLAAKASENTEGALEAARAAVKLAEVAKRIAKLLQRDAKKEGDPELLKLALRALELAVRAVELAIKENPDNEEAVETAKRLAEELRKVAELLEERAKETGDPELQELAKRAKEVADRARELAKKSNPNNGSGSHHWGSTHHHHHH
notes: De novo designed two-state hinge; the entry includes the C-terminal SNAC/His tag
Turning to B2, the kon in assay [2] amounted to 64000 M⁻¹ s⁻¹. Further, the Kd in assay [3] was found to be 0.5 nM. The binding result in the assay with effector protein 3hb12, in the assay with effector protein 3hb11, with effector protein 3hb03, in the assay with effector protein 3hb08 and with effector protein 3hb04 was “binds” throughout.

B3: FRET(extension) cs074F, unlabeled (designed binder)
chain: DEEVQEAVERAEELREEAEELIKKARKTGDPELLRKALEALECAVRAVEEAIKRNPDNDEAVETAVRLARELKKVAEELQERAKKTGDPELLKLALRALKVAVRAVKLAIKSNPDNEEAVKTAVRLARELLKVAEELKERAEKTGDPRLLLLAAEAIAWAIEAVFLAAKASENTEGALEAARAAVKLAEVAKRIAKLLQRDAKKEGDPELLKLALRALELAVRAVELAIKENPDNDEAVETAVRLARELKKVAEELQERAKKTGDPELLKLALRALEVAVRAVELAIKSNPDNEEAVETAKRLAEELRKVAELLEERACETGDPELQELAKRAKEVADRARELAKKSNPNNGSHHHHHH
notes: also called unlabeled extended hinge cs074F
As for B3, the kon in [2] is 100000 M⁻¹ s⁻¹. Further, the Kd in [4] is below 2 nM.

B4: variant cs221_lockedX, reducing conditions (DTT) (designed binder)
chain: MSGEMKEEIRRLAEELRERTKDEEVRELAREAARLAEESDDEEVKEVVKKALEAALKSKDEEVIRLLLLAAVCAAAAARSGSPEEKLEIAKKALELAMKSKDEEVIRLALLAAVLACRSDDEEVLKKVKEALEKAMESKDVEEIRERLREAVEVARAGSGSHHWGSTHHHHHH
notes: also called locked X with DTT
B4: the binding result in [5] is listed as “binds”.

B5: hinge cs269 (designed binder)
chain: MSGDEERVRELAERASREAERAVRSGSEESLEEALRNVEELIRKSDSEEARVRVAEAAVRAAAEAAARSGTVEAAAVAVIFTARVLQIVSSSEEAVVRVLAAAAAAAARVAVELGTEEALETALRFVELLVRLADSDEARQRVLRSASESARRSAEESGSERAREVAERFRERIERNQGSGSHHWGSTHHHHHH
On to B5, for which, in [6], the Kd was determined as 83 nM. In [7], this molecule displayed a kon of 2500 M⁻¹ s⁻¹. Further, the binding result in the assay with effector protein 3hb32 is reported as “binds”.

For the origin of these results see patent US20250236644A1 (University of Washington, published 2025).
